Molecular target: uncleaved full-length membrane-anchored HIV-1_(JR-FL) Env(-) glycoprotein (HIV-1 (JR-FL))
Assay: cryo-EM structure

“uncleaved full-length membrane-anchored HIV-1_(JR-FL) Env(-) glycoprotein (natural protein)” was tested, and the stoichiometry N was 3.

Reference: article doi:10.1101/288472
